Article PMC10743472

Biological target: CLPP, ATP-dependent Clp protease proteolytic subunit, mitochondrial (mouse (endogenous in mouse tissues)) (UniProt O88696)
Assay: native gel or EMSA; complexome profiling: mitochondria of WT and CLPP-null mouse testis, brain and heart (sucrose gradients), solubilised with digitonin, blue native electrophoresis on a 3 to 18% gradient gel, 48 slices, label-free mass spectrometry; co-migration read from the profiles

Chain of CLPP, ATP-dependent Clp protease proteolytic subunit, mitochondrial, O88696 53-272 (natural protein; other documents disagree on this pair) (O88696 53-272): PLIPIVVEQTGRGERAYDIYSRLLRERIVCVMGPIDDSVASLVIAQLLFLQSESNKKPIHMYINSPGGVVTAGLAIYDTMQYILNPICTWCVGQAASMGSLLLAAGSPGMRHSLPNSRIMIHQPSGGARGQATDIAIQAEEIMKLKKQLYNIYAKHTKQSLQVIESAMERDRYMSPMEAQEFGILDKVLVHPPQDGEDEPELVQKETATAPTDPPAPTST

stoichiometry N: 7
Substance: CLPP, ATP-dependent Clp protease proteolytic subunit, mitochondrial, O88696 53-272 (natural protein; other documents disagree on this pair)
